Experimental data reported in patent US20190022259A1, “Use of 99mTc-tilmanocept and related molecular constructs for identifying and diagnosing malignant tumors and for monitoring therapeutic anti-tumor interventions” (Navidea Biopharmaceuticals, Inc., priority 2017, published 2019).
“Also recorded” adds a separate entry of the source.

How the values were obtained:
[1] = system: TAMs around liver metastases (CD206+ macrophages); assay: SPECT/CT imaging of colorectal cancer patients with synchronous liver metastasis after intravenous injection; assay type: in vivo, human; settings: imaging 4-6 hours after injection
[2] = human, in vivo
Protocol: A safety follow-up was conducted between 2 to 8 days after the injection.

[3] = rat, in vivo, iv; cited from earlier work

In the case of “(99m)Tc-diethylenetriaminepentaacetic acid (DTPA)-mannosyl-dextran [^99mTc tilmanocept]”, the “localization on SPECT/CT image” value ([1]; first subject, 50 μg/2mCi i.v.) is reported as “localization of ^99mTc tilmanocept in an area of larger metastasis than was observed with the FDG PET/CT; also recorded: suggests the presence of TAMs around the metastasis”, the “localization on SPECT/CT image” value ([1]; second subject, 200 μg/2mCi i.v.) is reported as “Localization around the metastasis was noted” and the adverse drug reactions [2] is reported as “No adverse drug reactions were observed”. For the same substance, the “tolerability of IV injection” value ([2]; iv) was “well-tolerated” and the excretion [3] was “excreted into the urine”.
